From patent US20220119451A1 (published 2022)
Positions of bridges follow the written chain, without caps; N, C: chain ends. No end group written: not given here.

Assays:
[1] = biological target: mouse PD-L1 protein (G&P Biosciences, cat #FCL3502B) (mouse) (UniProt Q9EP73); experiment: ELISA, blocking of mouse PD-1 binding to mouse PD-L1 protein, 10 µM
[2] = biological target: T1, mouse PD-L1 protein (G&P Biosciences, cat #FCL3502B) (mouse, UniProt Q9EP73 19-239, limits assumed); experiment: blocking of the mouse PD-1/PD-L1 interaction (text value, differs from Table 3); text of paragraph 79, not Table 3
T1 construct: Bought protein; construct not described; also called mPD-L1 protein
T1 sequence (Q9EP73 19-239 limits assumed): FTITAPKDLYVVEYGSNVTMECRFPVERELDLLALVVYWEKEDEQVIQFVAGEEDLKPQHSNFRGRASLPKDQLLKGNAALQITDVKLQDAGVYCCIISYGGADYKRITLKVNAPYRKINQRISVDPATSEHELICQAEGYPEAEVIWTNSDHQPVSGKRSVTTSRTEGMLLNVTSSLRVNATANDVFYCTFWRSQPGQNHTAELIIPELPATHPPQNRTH
Method: (§1) Various concentrations of peptides were loaded into the wells and incubated for 1 hour at room temperature. […] Streptavidin-HRP (R&D systems) and chromogenic substrate were added into the wells. OD₄₅₀ was then recorded and referenced to OD₅₄₀.

[3] = biological target: T2, recombinant human PD-L1 extracellular domain (ECD) protein (cat #FCL0784B, G&P Biosciences) (human, UniProt Q9NZQ7 19-238); experiment: blocking of the human CD80/PD-L1 interaction
T2 construct: extracellular domain; Bought protein; also called hPD-L1 protein; human PD-L1 protein
T2 sequence (Q9NZQ7 19-238): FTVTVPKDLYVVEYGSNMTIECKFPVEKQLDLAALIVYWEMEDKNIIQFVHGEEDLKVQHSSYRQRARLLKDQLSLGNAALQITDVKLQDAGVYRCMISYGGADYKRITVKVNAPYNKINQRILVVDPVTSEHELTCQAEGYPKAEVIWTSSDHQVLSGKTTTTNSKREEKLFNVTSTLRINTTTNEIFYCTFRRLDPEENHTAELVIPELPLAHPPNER

[4] = biological target: T2, recombinant human PD-L1 extracellular …; experiment: blocking of the human CD80/PD-L1 interaction, 10 µM
[5] = biological target: T3, human PD-L1 on DU-145 cancer cells (human, UniProt Q9NZQ7 19-290); experiment: blocking of PD-1 binding to DU-145 cells
T3 construct: whole, on cells; Endogenous PD-L1 of a PD-L1-positive human cancer cell line
T3 sequence (Q9NZQ7 19-290): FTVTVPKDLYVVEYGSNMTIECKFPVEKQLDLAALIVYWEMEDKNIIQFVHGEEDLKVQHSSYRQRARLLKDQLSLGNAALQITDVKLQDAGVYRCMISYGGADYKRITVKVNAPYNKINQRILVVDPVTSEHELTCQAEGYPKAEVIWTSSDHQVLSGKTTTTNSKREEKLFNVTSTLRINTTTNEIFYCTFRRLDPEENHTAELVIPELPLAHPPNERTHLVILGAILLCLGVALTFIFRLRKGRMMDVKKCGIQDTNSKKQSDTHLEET

[6] = biological target: T4, bovine serum albumin (bovine, UniProt P02769 25-607); experiment: SPR, albumin (BSA) immobilised, peptide series injected
T4 construct: Specificity control in SPR; also called BSA
T4 sequence (P02769 25-607 limits assumed): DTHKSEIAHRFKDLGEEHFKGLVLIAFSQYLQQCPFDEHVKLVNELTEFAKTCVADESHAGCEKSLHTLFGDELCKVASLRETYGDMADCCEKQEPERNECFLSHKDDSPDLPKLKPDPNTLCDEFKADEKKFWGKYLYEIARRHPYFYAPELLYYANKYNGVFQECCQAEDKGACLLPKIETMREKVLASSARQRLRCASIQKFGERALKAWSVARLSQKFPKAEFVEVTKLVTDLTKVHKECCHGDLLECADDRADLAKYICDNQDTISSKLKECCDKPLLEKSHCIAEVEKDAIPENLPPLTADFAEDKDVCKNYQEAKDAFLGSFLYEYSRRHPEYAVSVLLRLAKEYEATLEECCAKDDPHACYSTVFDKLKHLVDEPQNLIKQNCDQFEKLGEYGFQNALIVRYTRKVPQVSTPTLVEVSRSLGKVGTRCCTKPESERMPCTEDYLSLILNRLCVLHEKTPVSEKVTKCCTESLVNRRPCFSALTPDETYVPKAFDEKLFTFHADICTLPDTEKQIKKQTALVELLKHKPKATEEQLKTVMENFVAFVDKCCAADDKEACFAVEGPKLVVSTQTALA
Method: (§2) Evaluation of Binding Kinetics and Affinity By Surface Plasmon Resonance (SPR). […] PD-L1 protein was diluted to 10 μg/mL with sodium acetate buffer (pH 5.0, GE Healthcare, PA) and covalently coated onto a CM5 sensor chip (CM Dextran Sensor Chip, Biosensing Instrument) using the standard Amine Coupling Kit (GE Healthcare, PA). Approximately 6500 RU of PD-L1 protein were immobilized onto the chip. A second channel was used as a reference. HBS-EP+ buffer (GE Healthcare) was employed at a flow rate of 60 μL/min. […] The CM5 sensor chip was regenerated with 10 mM NaOH for 20 seconds. The results were analyzed using the software of Bi data analysis software.
Nonspecific binding of the peptides against bovine serum albumin (BSA) using SPR was measured. […] MCF-7 human cancer cells are PD-L1 deficient and used as a negative control in this study. […] Results are represented as the mean±SD (n=3).

[7] = biological target: T5, mouse PD-L1 on 4T1 cancer cells (mouse, UniProt Q9EP73 19-290); experiment: blocking of mouse PD-1 binding to 4T1 cells
T5 construct: whole, on cells; also called mouse cancer cell line 4T1
T5 sequence (Q9EP73 19-290): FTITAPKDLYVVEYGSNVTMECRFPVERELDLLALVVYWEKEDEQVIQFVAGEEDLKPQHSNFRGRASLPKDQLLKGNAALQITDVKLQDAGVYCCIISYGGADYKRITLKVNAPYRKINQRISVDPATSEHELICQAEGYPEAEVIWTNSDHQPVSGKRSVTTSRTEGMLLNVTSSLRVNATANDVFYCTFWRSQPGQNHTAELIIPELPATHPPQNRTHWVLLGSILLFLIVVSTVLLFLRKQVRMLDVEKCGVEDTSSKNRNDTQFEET

[8] = biological target: T1, mouse PD-L1 protein (G&P Biosciences, …); experiment: ELISA, blocking of mouse PD-1 binding to coated mouse PD-L1 protein
Method: as §1

[9] = biological target: T2, recombinant human PD-L1 extracellular …; experiment: SPR, human PD-L1 ECD immobilised on CM5 chip
Method: as §2
The PD-L1 protein was immobilized on a CM5 golden chip by the direct amine coupling method. […] In a recent study, scientists constructed several chimeric antigen receptor (CAR) T cells with different affinities to ICAM-1.

[10] = biological target: T2, recombinant human PD-L1 extracellular …; experiment: ELISA, blocking of PD-1 binding to coated human PD-L1 protein
Method: as §1

[11] = biological target: T2, recombinant human PD-L1 extracellular …; experiment: SPR, PD-L1 immobilised
Method: as §2

[12] = biological target: T4, bovine serum albumin; experiment: SPR, BSA immobilised
[13] = biological target: T2, recombinant human PD-L1 extracellular …; experiment: PD1/PD-L1 blocking assay of Table 5 (format not stated), 10 µM
[14] = biological target: T6, recombinant human PD-L1 protein (Acro Biosystems, cat #EP-101 assay pair) (human, UniProt Q9NZQ7 19-238); experiment: ELISA, blocking of biotinylated human PD-1 binding to coated human PD-L1, 10 µM
T6 construct: Bought protein; construct not described; also called hPD-L1; human PD-L1 (AcroBiosystems, cat #EP-101)
T6 sequence (Q9NZQ7 19-238 limits assumed): as the sequence (Q9NZQ7 19-238) above
Method: (§3) Unbound protein was removed by washing twice with PBS (pH 7.2-7.4), 2% BSA was added for 1.5 h at 37° C. to block the plate. Specific concentrations of the peptides were dispensed into the appropriate wells and incubated for 2 h at 37° C. […] This was followed by the addition of streptavidin-HRP and chromogenic substrate (R&D systems). The color reaction was terminated with 2N H₂SO₄, absorbance was recorded at OD450 and referenced to OD540.
(§4) In this Example, various properties of the peptides of SEQ ID NO:5, SEQ ID NO:6 and SEQ ID NO:7 were evaluated. The procedures for generating these values are described above in the beginning of the Examples section.

[15] = biological target: T2, recombinant human PD-L1 extracellular …; experiment: PD1/PD-L1 blocking assay of Table 5 (format not stated)
[16] = biological target: T6, recombinant human PD-L1 protein (Acro …); experiment: competitive SPR, peptide preincubated with human PD-L1, injected over immobilised PD-1
Method: BI-4500A SPR and a CM-5 sensor chip pre-functionalized with streptavidin (Biosensing Instrument Inc., Tempe, Ariz.) were employed for the SPR analysis. […] Data was analyzed with SPR Data Analysis Version 3.8.4 (Biosensing Instrument Inc., Tempe, Ariz.).
as §4

[17] = biological target: T7, mouse PD-L1 (Acro Biosystems, cat #PD1-M5220) (mouse, UniProt Q9EP73 19-238); experiment: ELISA, blocking of biotinylated mouse PD-1 binding to coated mouse PD-L1
T7 construct: Bought protein; construct not described; also called mPD-L1
T7 sequence (Q9EP73 19-238 limits assumed): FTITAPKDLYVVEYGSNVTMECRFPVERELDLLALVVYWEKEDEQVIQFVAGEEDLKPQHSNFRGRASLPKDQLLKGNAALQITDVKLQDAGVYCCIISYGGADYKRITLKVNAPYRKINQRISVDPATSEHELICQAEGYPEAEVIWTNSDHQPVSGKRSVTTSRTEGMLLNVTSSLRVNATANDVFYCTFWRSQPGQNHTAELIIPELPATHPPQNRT
Method: as §3, §4

[18] = biological target: T6, recombinant human PD-L1 protein (Acro …); experiment: ELISA, blocking of biotinylated human PD-1 binding to coated human PD-L1
Method: as §3

mouse PD-L1 protein (G&P Biosciences, cat #FCL3502B) (mouse), sequence (Q9EP73 19-239 limits assumed): as the sequence (Q9EP73 19-239 limits assumed) above

Molecule | blocking efficiency at 10 µM [4] [%] | Blocking Efficiency (%) [5] [%] | IC50 [5] [nM] | binding result [6] | Blocking Efficiency (%) [7] [%] | IC50 [7] [nM] | Blocking Efficiency (%) [8] [%] | IC50 [8] [nM] | Kd [9] [nM] | koff [9] [s⁻¹] | kon [9] [M⁻¹ s⁻¹] | Blocking Efficiency (%) [10] [%] | IC50 [10] [nM] | Kd [11] [nM] | Kd [12] [nM] | % Blocking efficiency at 10 µM [13] [%] | % Blocking efficiency at 10 µM (ELISA) hPD-L1 [14] [%] | other results
anti-mouse PD-L1 antibody (BioXcell, 10F.9G2) |  |  |  |  |  |  |  |  |  |  |  |  |  |  |  |  |  | blocking efficiency at 10 µM [1]: 92%
WHFSYNWRWLPP (not fully specified, 12-mer from phage display) [CLP003 peptide] | ~48 | 56 | 3050 | no binding | 50 | 1000 | 46 | 2260 | 117 | 0.00162 | 22600 | 60 | 2220 |  |  |  |  | IC50 [2]: 1960 nM; IC50 [3]: 1620 nM
WHRSYYTWN (Truncated form of CLP002 (9 residues)) [CLP2TR3] |  |  |  |  |  |  |  |  |  |  |  |  |  | 258 | 2050 | 80 | 80 | 
CHRSYYTWNLNC (disulfide 1-12, Cyclic variant of CLP002) [CLP2C14] |  |  |  |  |  |  |  |  |  |  |  |  |  | 2.78 | 408 | 75 | 75 | IC50 [15]: 5 nM; IC50 [16]: 119 nM; IC50 [17]: 550 nM; IC50 [18]: 180 nM
WHRSYYTWNLNT (not fully specified, 12-mer from phage display) [CLP002 peptide] | ~48 | 80 | 1430 | no binding | 61 | 2440 | 68 | 1910 | 366 | 0.00145 | 4520 | 85 | 2170 |  |  |  |  | IC50 [2]: 1510 nM; IC50 [3]: 2450 nM
CHRSYYCWNLNT (disulfide 1-7, Cyclic variant of CLP002) [CLP2C21] |  |  |  |  |  |  |  |  |  |  |  |  |  | 124 | 1240 | 78 | 85.9 | IC50 [15]: 6 nM; IC50 [16]: 143 nM; IC50 [17]: 460 nM; IC50 [18]: 440 nM
DYHDPSLPTLRK (not fully specified, 12-mer from phage display) [CLP004 peptide] | ~27 | 60 | 200 | no binding | 34 | 730 | 48 | 1910 | 544 | 0.00275 | 5140 | 52 | 1170 |  |  |  |  | 
HYPFRPHANQAS (not fully specified, 12-mer from phage display) [CLP001 peptide] | ~17 | 0 |  | no binding | 35 | 910 | 34 | 2430 | 534 | 0.00281 | 5190 | 0 |  |  |  |  |  | 
